# Columns and labels:
# Assay in all cases: fluorescence anisotropy
# [1] = test system: POLRMT T315E (phosphomimic) (Homo sapiens); settings: N=5; 20 mM Tris-HCl EDTA buffer (pH and salt not given), 3 nM labeled duplex, 0-20 nM POLRMT, 25 °C; fit with Hill slope
# [2] = test system: POLRMT K402Q (acetyl mimic) (Homo sapiens); settings: N=5; 20 mM Tris-HCl EDTA buffer (pH and salt not given), 3 nM labeled duplex, 0-20 nM POLRMT, 25 °C; fit with Hill slope
# POLRMT WT (Homo sapiens) = settings: no TFAM or TFB2M mentioned; N=7; 20 mM Tris-HCl EDTA buffer (pH and salt not given), 3 nM labeled duplex, 0-20 nM POLRMT, 25 °C; fit with Hill slope
# [3] = test system: POLRMT T993E (phosphomimic) (Homo sapiens); settings: N=4; 20 mM Tris-HCl EDTA buffer (pH and salt not given), 3 nM labeled duplex, 0-20 nM POLRMT, 25 °C; fit with Hill slope
substance,measurement,setting,value
light strand promoter (LSP) duplex,Kd,[1],1.55 nM
same,Kd,[2],3.02 nM
same,Kd,POLRMT WT (Homo sapiens),3.45 nM
same,Kd,[3],2.87 nM

# From publication PMC10671485
